Data as given in patent US20210277110A1 (Janssen / Centocor, published 2021).
Where two headings read alike, the source gives them in different places.

T1: Extracellular domain of cyno PD1 (cPD1-ECD) (Macaca fascicularis (cynomolgus))
T1 construct: Expressed with a hexahistidine tag or as Fc fusion; also called cynoPD1-ECD; cynoPD-1-ECD
T1 chain: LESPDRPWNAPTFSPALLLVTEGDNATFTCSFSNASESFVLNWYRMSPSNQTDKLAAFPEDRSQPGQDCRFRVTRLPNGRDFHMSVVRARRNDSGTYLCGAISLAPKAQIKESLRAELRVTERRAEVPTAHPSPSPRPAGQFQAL


Experiments:
[1] = molecular target: T2, Full length human PD1 (huPD1) on cells (human, UniProt Q15116 25-288); assay: flow cytometry, PHA-stimulated Jurkat cells
T2 construct: on T cells of human donors in the MLR and CMV assays (functional); also called PD-1 on Jurkat cells
T2 sequence (Q15116 25-288 limits assumed): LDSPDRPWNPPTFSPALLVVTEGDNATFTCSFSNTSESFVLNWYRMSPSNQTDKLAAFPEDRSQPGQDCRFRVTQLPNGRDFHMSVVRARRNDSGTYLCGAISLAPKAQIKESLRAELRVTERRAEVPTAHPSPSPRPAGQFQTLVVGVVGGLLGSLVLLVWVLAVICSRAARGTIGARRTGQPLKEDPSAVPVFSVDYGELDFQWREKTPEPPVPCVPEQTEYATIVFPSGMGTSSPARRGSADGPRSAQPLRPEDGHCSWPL
Protocol: Jurkat cells were stimulated overnight with 20 ng/ml of PHA, harvested, washed, and checked for viability. The cells were then incubated at 6-10° C. for 45-60 minutes with various concentrations of test antibodies, washed and incubated at 6-10° C. for 45-60 minutes with FITC-labeled goat anti-human IgG. The cells were washed and fixed with BD Cytofix, refrigerated overnight and analyzed on a MACSQuant flow cytometer. The percentage of PD-1 positive cells at each antibody concentration was plotted vs log of the antibody concentration and EC₅₀ values were generated in Prism.

[2] = molecular target: T3, Extracellular domain of human PD1 (huPD1-ECD) (human, UniProt Q15116 25-169, biotinylated in the ligand inhibition assay (sites not given)); assay: SPR ProteOn, captured mAb, huPD1-ECD analyte
T3 construct: Expressed with a hexahistidine tag or as Fc fusion; also called biotinylated PD-1
T3 sequence (Q15116 25-169 limits assumed): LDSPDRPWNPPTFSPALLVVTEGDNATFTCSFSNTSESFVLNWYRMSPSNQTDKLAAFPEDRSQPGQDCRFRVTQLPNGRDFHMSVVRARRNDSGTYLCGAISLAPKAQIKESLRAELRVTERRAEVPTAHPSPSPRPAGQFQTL

[3] = molecular target: T1, Extracellular domain of cyno PD1 …; assay: SPR ProteOn, captured mAb, cynoPD1-ECD analyte
Protocol: (§1) Affinity measurements using Surface Plasmon Resonance (SPR) were performed using a ProteOn XPR36 system. A biosensor surface was prepared by coupling a mixture of anti-IgG Fc modified alginate polymer layer surface of a GLC chip using the manufacturer instructions for amine-coupling chemistry. […] The collected data were processed and fitted to a Langmuir 1:1 binding model. The result for each mAb was reported in the format of kₒₙ (On-rate), koff (Off-rate) and KD (equilibrium dissociation constant).
(§2) STDEV were calculated for 3 or more replicates generated for human and cyno proteins. If less than 3 replicates were calculated, RANGE was indicated. RANGE is defined as the low and high values for the replicates tested. For samples in the Table 10 or Table 11 without value indicated in RANGE or STDEV, only one experiment was performed.

[4] = molecular target: T3, Extracellular domain of human PD1 …; assay: MSD ligand inhibition, competitor coated cynoPDL1-ECD
Protocol: The ligand inhibition assay design was MSD (Mescoscale Discovery) based. A MSD plate was directly coated with ligand (cynoPDL1-ECD, huPDL1-ECD or huPDL2-ECD) and incubated overnight at 4° C. The following day, the coating solution was removed and the plate was blocked. […] Depending on the panel of antibodies to be tested, the antibodies were tested as titrations or at a fixed concentration. […] The mAbs that were positive for inhibition of ligand binding at one concentration were also tested in dose responses for inhibition of various PD-1 ligands.
Select Fabs were cloned as IgG2sigma isotype and characterized for their Jurkat cell binding and cynomolgus PD-L1 ligand inhibition at concentrations 1 μg/ml and 10 μg/ml.

[5] = molecular target: T1, Extracellular domain of cyno PD1 …; assay: SPR ProteOn, cynoPD1-ECD; RANGE low replicate
Protocol: as §1, §2

[6] = molecular target: T1, Extracellular domain of cyno PD1 …; assay: SPR ProteOn, cynoPD1-ECD; RANGE high replicate
[7] = molecular target: T3, Extracellular domain of human PD1 …; assay: SPR ProteOn, captured mAb, huPD1-ECD analyte; remark: listed apart in the source
Protocol: as §1
(§3) STDEV were calculated for 3 or more replicates generated for human and cyno proteins. If less than 3 replicates were calculated, RANGE is indicated. RANGE is defined as the low and high values for the replicates tested. For samples without RANGE or STDEV, only one experiment was performed

[8] = molecular target: T1, Extracellular domain of cyno PD1 …; assay: SPR ProteOn, captured mAb, cynoPD1-ECD analyte
Protocol: as §1, §3

EC50 [1] | Kd [2] | koff [2] | kon [2] | Kd [3] | koff [3] | kon [3] | percentage ligand not blocked at 1 µg/ml [4] | percentage ligand not blocked at 10 µg/ml [4] | Kd [7] | koff [7] | kon [7] | Kd [8] | koff [8] | kon [8] | Binder | also measured
0.47 µg/mL | 54.1 nM | 0.0279 s⁻¹ | 517000 M⁻¹ s⁻¹ | 81.5 nM | 0.0239 s⁻¹ | 294000 M⁻¹ s⁻¹ | 8% | 13% |  |  |  |  |  |  | PD1B114 (antibody, human IgG2, kappa, V domains shown, IgG2sigma/kappa; also called PD1H24/PH9L3) VH: QVQLVQSGAEVKKPGSSVKVSCKASGGTFSSYAISWVRQAPGQGLEWMGGIIPIFGTANYAQKFQGRVTITADESTSTAYMELSSLRSEDTAVYYCARPGLAAAYDTGNLDYWGQGTLVTVSS VL: EIVLTQSPATLSLSPGERATLSCRASQSVSSYLAWYQQKPGQAPRLLIYDASNRATGIPARFSGSGSGTDFTLTISSLEPEDFAVYYCQQRSNWPLTFGQGTKVEIKR | 
0.08 µg/mL | 6.87 nM | 0.00371 s⁻¹ | 540000 M⁻¹ s⁻¹ | 5.23 nM | 0.00166 s⁻¹ | 317000 M⁻¹ s⁻¹ | 4% | 3% |  |  |  |  |  |  | PD1B160 (antibody, human IgG2, kappa, V domains shown, IgG2sigma/kappa; VH 42, VL 51; also called PD1H131/PD1L101) VH: QVQLVQSGAEVKKPGSSVKVSCKASGGTFSSYAISWVRQAPGQGLEWMGGIIPIFDTANYAQKFQGRVTITADESTSTAYMELSSLRSEDTAVYYCARPGLAAAYDTGNLDYWGQGTLVTVSS VL: EIVLTQSPATLSLSPGERATLSCRASQSVDSYLAWYQQKPGQAPRLLIKDASDRATGIPARFSGSGSGTDFTLTISSLEPEDFAVYYCQQRGNWPLTFGQGTKVEIKR | Kd [5]: 5.1 nM; koff [5]: 0.00163 s⁻¹; kon [5]: 316000 M⁻¹ s⁻¹; Kd [6]: 5.3 nM; koff [6]: 0.00168 s⁻¹; kon [6]: 317000 M⁻¹ s⁻¹
 |  |  |  |  |  |  |  |  | 4.9 nM | 0.00324 s⁻¹ | 658000 M⁻¹ s⁻¹ | 4.6 nM | 0.00126 s⁻¹ | 275000 M⁻¹ s⁻¹ | PD1B197 (antibody, V domains shown, also called PD1H163/PD1L185) VH: QVQLVQSGAEVKKPGSSVKVSCKASGGTFKSYVIHWVRQAPGQGLEWMGGIIPIFGTANYAQKFQGRVTITADESTSTAYMELSSLRSEDTAVYYCARGYVRATGMLDYWGQGTLVTVSS VL: EIVLTQSPATLSLSPGERATLSCRASQSVSNYLAWYQQKPGQAPRLLIYDASNRATGIPARFSGSGSGTDFTLTISSLEPEDFAVYYCQQRAYWPLTFGQGTKVEIK | 
 |  |  |  |  |  |  |  |  | 10.4 nM | 0.00934 s⁻¹ | 895000 M⁻¹ s⁻¹ | 11.2 nM | 0.00416 s⁻¹ | 372000 M⁻¹ s⁻¹ | PD1B198 (antibody, V domains shown, also called PD1H163/PD1L187) VH: QVQLVQSGAEVKKPGSSVKVSCKASGGTFKSYVIHWVRQAPGQGLEWMGGIIPIFGTANYAQKFQGRVTITADESTSTAYMELSSLRSEDTAVYYCARGYVRATGMLDYWGQGTLVTVSS VL: EIVLTQSPATLSLSPGERATLSCRASQSVSSYLAWYQQKPGQAPRLLIEDASSRATGIPARFSGSGSGTDFTLTISSLEPEDFAVYYCQQRAEWPLTFGQGTKVEIK | 
 |  |  |  |  |  |  |  |  | 1.07 nM | 0.00096 s⁻¹ | 897000 M⁻¹ s⁻¹ | 0.6 nM | 0.000193 s⁻¹ | 322000 M⁻¹ s⁻¹ | PD1B194 (antibody, V domains shown, also called PD1H170/PD1L71) VH: QVQLVQSGAEVKKPGSSVKVSCKASGGTFSSYAISWVRQAPGQGLEWMGGIIPIFDTANYAQKFQGRVTITADESTSTAYMELSSLRSEDTAVYYCARPGLAAAYDTGSLDYWGQGTLVTVSS VL: EIVLTQSPATLSLSPGERATLSCRASQSVRSYLAWYQQKPGQAPRLLIYDASYRATGIPARFSGSGSGTDFTLTISSLEPEDFAVYYCQQRDYWPLTFGQGTKVEIK | 
